# In IntAct's records for PubMed 19351902:
# B1: Short transient receptor potential channel 3 (Mus musculus), Q9QZC1 (parent)
# chain: MSTKVKKCREPARVTLPAPEEEEDGEAEGGESQRRRRGWRGVNGGLEPPCPRAPPSPGPDASSEGSPSRWRTAGMRDKGRRQAVRGPAFMFGARGPSLTAEEERFLDAAEYGNIPVVRKMLEESRTLNVNCVDYMGQNALQLAVGNEHLEVTELLLKKENLARIGDALLLAISKGYVRIVEAILGHPGFAASRRLTLSPCEQELRDDDFYAYDEDGTRFSPDITPIILAAHCHKYEVVHLLLLKGARIERPHDYFCRCSDCAEKQRLDAFSHSRSRINAYKGLASPAYLSLSSEDPVLTALELSNELAKLANIEKEFKNDYRKLSMQCKDFVVGVLDLCRDSEEVEAILNGDLESAEPLERHGHKASLSRVKLAIKYEVKKFVAHPNCQQQLLTIWYENLSGLREQTIAIKCLVVLVVALGLPFLAIGYWIAPCSRLGKILRSPFMKFVAHAASFIIFLGLLVFNASDRFEGITTLPNITVIDYPKQIFRVKTTQFTWTEMLIMVWVLGMMWSECKELWLEGPREYIVQLWNVLDFGMLSIFIAAFTARFLAFLQATKAQQYVDSHVQESDLSEVTLPPEVQYFTYARDKWLPSDPQIISEGLYAIAVVLSFSRIAYILPANESFGPLQISLGRTVKDIFKFMVLFIMVFLAFMIGMFILYSYYLGAKVNPAFTTVEESFKTLFWSIFGLSEVTSVVLKYDHKFIENIGYVLYGIYNVTMVVVLLNMLIAMINSSYQEIEDDSDVEWKFARSKLWLSYFDDGKTLPPPFSLVPSPKSFVYFIMRITNFSKCRRRRLQKDLELGMGNSKSRLNLFTQSNSRVFESHSFNSILNQPTRYQQIMKRLIKRYVLKAQVDKENDEVNEGELKEIKQDISSLRYELLEDKSQATEELAILIHKLSEKLNPSVLRCE
# Variants of: B1
# Conditions: with kpcg_human PRKCG
row,Variant,effect of a mutation on the interaction
1,T635A,disrupting interaction strength
